Experimental data reported in patent US20170002055A1, “Novel peptides and combination of peptides for use in immunotherapy against ovarian cancer and other cancers” (immatics biotechnologies GmbH, priority 2015, published 2017).

Target: HLA-A*02:01 (Homo sapiens, UniProt P04439, D140Y/D185E/D98H/E176V/E277Q/G131W/G231S/I119V/I121R/I166T/I218V/L300P/L318F/N151K/N90K/P208A/P217A/Q86G/Q94H/R138H/R169H/T345S)
Experiment: MHC binding assay (UV-ligand exchange, β2m ELISA, peptide exchange yield)
Settings: MHC class I binding score; binding to HLA-A*02:01 ranged by peptide exchange yield (UV-ligand exchange, β2m ELISA)
Summary of the method: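 Binding is expressed as peptide exchange yield: stabilized MHC complexes were quantified by β2m ELISA, with a 450 nm TMB read-out on streptavidin-coated plates. Complexes came from UV-ligand exchange, where UV irradiation cleaves a photolabile peptide so the candidate peptide can load.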

Substance	Peptide exchange
548 (ALWENPESGEL; listed as Homo sapiens) [compound 548]	“++” (≧20% = ++)
549 (AMLENASDIKL; listed as Homo sapiens) [compound 549]	“+++” (≧50 = +++)
550 (FLYDEIEAEVNL; listed as Homo sapiens) [compound 550]	“+++” (≧50 = +++)
551 (KLYESLLPFA; listed as Homo sapiens) [compound 551]	“+++” (≧50 = +++)
552 (GLLDLPFRVGV; listed as Homo sapiens) [compound 552]	“++++” (≧75% = ++++)
553 (SLLNQDLHWSL; listed as Homo sapiens) [compound 553]	“++++” (≧75% = ++++)
554 (LLMPSSEDLLL; listed as Homo sapiens) [compound 554]	“+++” (≧50 = +++)
555 (YVLEGLKSV; listed as Homo sapiens) [compound 555]	“+++” (≧50 = +++)
556 (FLTDLEDLTL; listed as Homo sapiens) [compound 556]	“+++” (≧50 = +++)
557 (KLYDDMIRL; listed as Homo sapiens) [compound 557]	“+++” (≧50 = +++)
558 (GLLENIPRV; listed as Homo sapiens) [compound 558]	“+++” (≧50 = +++)
559 (VTVPPGPSL; listed as Homo sapiens) [compound 559]	“++” (≧20% = ++)
560 (ALWDIETGQQTTT; listed as Homo sapiens) [compound 560]	“+++” (≧50 = +++)
561 (YLQLTQSEL; listed as Homo sapiens) [compound 561]	“+++” (≧50 = +++)
562 (YLEELPEKLKL; listed as Homo sapiens) [compound 562]	“+++” (≧50 = +++)
563 (WLLPYNGVTV; listed as Homo sapiens) [compound 563]	“+++” (≧50 = +++)
564 (TVTNAVVTV; listed as Homo sapiens) [compound 564]	“+++” (≧50 = +++)
565 (ALQETPTSV; listed as Homo sapiens) [compound 565]	“++” (≧20% = ++)
566 (VIADGGIQNV; listed as Homo sapiens) [compound 566]	“++” (≧20% = ++)
567 (SLLPLDDIVRV; listed as Homo sapiens) [compound 567]	“+++” (≧50 = +++)
568 (TLYDIAHTPGV; listed as Homo sapiens) [compound 568]	“++++” (≧75% = ++++)
569 (KLVDRTWTL; listed as Homo sapiens) [compound 569]	“+++” (≧50 = +++)
570 (ALANQIPTV; listed as Homo sapiens) [compound 570]	“++” (≧20% = ++)
571 (LLLTTIPQI; listed as Homo sapiens) [compound 571]	“+++” (≧50 = +++)
572 (ALADLIEKELSV; listed as Homo sapiens) [compound 572]	“+++” (≧50 = +++)

Substance	Peptide exchange
573 (ILVANAIVGV; listed as Homo sapiens) [compound 573]	“+++” (≧50 = +++)
574 (YLLQEPPRTV; listed as Homo sapiens) [compound 574]	“++” (≧20% = ++)
575 (YLISQVEGHQV; listed as Homo sapiens) [compound 575]	“+++” (≧50 = +++)
576 (ILLNNSGQIKL; listed as Homo sapiens) [compound 576]	“++++” (≧75% = ++++)
577 (VMFEDGVLMRL; listed as Homo sapiens) [compound 577]	“+++” (≧50 = +++)
578 (FLDPGGPMMKL; listed as Homo sapiens) [compound 578]	“+++” (≧50 = +++)
579 (NLMEMVAQL; listed as Homo sapiens) [compound 579]	“++” (≧20% = ++)
580 (LLMENAERV; listed as Homo sapiens) [compound 580]	“++” (≧20% = ++)
582 (TLCDVILMV; listed as Homo sapiens) [compound 582]	“+++” (≧50 = +++)
583 (ILANDGVLLAA; listed as Homo sapiens) [compound 583]	“+++” (≧50 = +++)
584 (ALAEVAAMENV; listed as Homo sapiens) [compound 584]	“+++” (≧50 = +++)
585 (ALWDLAADKQTL; listed as Homo sapiens) [compound 585]	“++++” (≧75% = ++++)
586 (KLKPGDLVGV; listed as Homo sapiens) [compound 586]	“+++” (≧50 = +++)
587 (VMNDRLYAI; listed as Homo sapiens) [compound 587]	“+++” (≧50 = +++)
588 (SLLPLSHLV; listed as Homo sapiens) [compound 588]	“+++” (≧50 = +++)
589 (KLYPQLPAEI; listed as Homo sapiens) [compound 589]	“+++” (≧50 = +++)
590 (SLIEKLWQT; listed as Homo sapiens) [compound 590]	“++” (≧20% = ++)
591 (SMAELDIKL; listed as Homo sapiens) [compound 591]	“+++” (≧50 = +++)
592 (RLLSAAENFL; listed as Homo sapiens) [compound 592]	“+++” (≧50 = +++)
593 (GLPRFGIEMV; listed as Homo sapiens) [compound 593]	“+++” (≧50 = +++)
594 (IMLKGDNITL; listed as Homo sapiens) [compound 594]	“+++” (≧50 = +++)
595 (VLLSIYPRV; listed as Homo sapiens) [compound 595]	“+++” (≧50 = +++)
596 (ALLDQTKTLAESAL; listed as Homo sapiens) [compound 596]	“+++” (≧50 = +++)
597 (KLLEGQVIQL; listed as Homo sapiens) [compound 597]	“+++” (≧50 = +++)
598 (FLFPHSVLV; listed as Homo sapiens) [compound 598]	“+++” (≧50 = +++)

Substance	Peptide exchange
599 (YLLNDASLISV; listed as Homo sapiens) [compound 599]	“+++” (≧50 = +++)
600 (ALAAPDIVPAL; listed as Homo sapiens) [compound 600]	“+++” (≧50 = +++)
601 (SAFPFPVTV; listed as Homo sapiens) [compound 601]	“+++” (≧50 = +++)
602 (YLLEQIKLIEV; listed as Homo sapiens) [compound 602]	“++++” (≧75% = ++++)
604 (SILDRDDIFV; listed as Homo sapiens) [compound 604]	“+++” (≧50 = +++)
605 (KLYEAVPQL; listed as Homo sapiens) [compound 605]	“+++” (≧50 = +++)
606 (ALWETEVYI; listed as Homo sapiens) [compound 606]	“+++” (≧50 = +++)
607 (RLYSGISGLEL; listed as Homo sapiens) [compound 607]	“+++” (≧50 = +++)
608 (SLLSVSHAL; listed as Homo sapiens) [compound 608]	“+++” (≧50 = +++)
609 (ALWKQLLEL; listed as Homo sapiens) [compound 609]	“+++” (≧50 = +++)
610 (LLAPTPYIIGV; listed as Homo sapiens) [compound 610]	“+++” (≧50 = +++)
611 (YLLDDGTLVV; listed as Homo sapiens) [compound 611]	“++++” (≧75% = ++++)
612 (YLYNEGLSV; listed as Homo sapiens) [compound 612]	“+++” (≧50 = +++)
613 (RLLPPGAVVAV; listed as Homo sapiens) [compound 613]	“+++” (≧50 = +++)
614 (LLLPDQPPYHL; listed as Homo sapiens) [compound 614]	“+++” (≧50 = +++)
615 (VLPPDTDPA; listed as Homo sapiens) [compound 615]	“++” (≧20% = ++)
616 (VLIDEVESL; listed as Homo sapiens) [compound 616]	“+++” (≧50 = +++)
617 (ALMYESEKVGV; listed as Homo sapiens) [compound 617]	“+++” (≧50 = +++)
618 (VLFDSESIGIYV; listed as Homo sapiens) [compound 618]	“+++” (≧50 = +++)
619 (ALQDRVPLA; listed as Homo sapiens) [compound 619]	“+++” (≧50 = +++)
620 (KLLNKIYEA; listed as Homo sapiens) [compound 620]	“++++” (≧75% = ++++)
621 (VLMDRLPSLL; listed as Homo sapiens) [compound 621]	“++++” (≧75% = ++++)
622 (RLLGEEVVRVLQA; listed as Homo sapiens) [compound 622]	“+++” (≧50 = +++)
623 (YLVEDIQHI; listed as Homo sapiens) [compound 623]	“+++” (≧50 = +++)
635 (SLDSTLHAV; listed as Homo sapiens) [compound 635]	“+++” (≧50 = +++)
